{
  "source": "paper PMC11980386",
  "key": {"[1]": {"biological_target": "Superoxide reductase Sor (CD0827, desulfoferrodoxin) of Clostridioides difficile (Clostridioides difficile)", "assay": "SEC; Superdex S200 10/300 GL, 20 mM Tris-HCl pH 7.5, 150 mM NaCl, no glycerol; mass read against protein standards"}, "[2]": {"biological_target": "CD0828 of Clostridioides difficile (annotated as a glutamate synthase, with an N-terminal rubredoxin-like domain) (Clostridioides difficile)", "assay": "SEC; Superdex S200 10/300 GL, 20 mM Tris-HCl pH 7.5, 18% glycerol, 150 mM NaCl; mass read against a second set of standards (ovalbumin, conalbumin, aldolase, ferritin, thyroglobulin)"}, "[3]": {"biological_target": "Rubrerythrin Rbr (CD0825) of Clostridioides difficile (Clostridioides difficile)", "assay": "SEC; Superdex S200 10/300 GL, 20 mM Tris-HCl pH 7.5, 18% glycerol, 150 mM NaCl; mass read against protein standards"}},
  "note": "“And” between values parts separate entries of the source, which are not always exact repeats. Identical values can stand only once.",
  "data": [
    {"substance": "Superoxide reductase Sor (CD0827, desulfoferrodoxin) of Clostridioides difficile (enzyme)", "values": [
      {"measurement": "stoichiometry N", "setting": "[1]", "value": "2 and 4"}
    ]},
    {"substance": "CD0828 of Clostridioides difficile (annotated as a glutamate synthase, with an N-terminal rubredoxin-like domain) (natural protein)", "values": [
      {"measurement": "stoichiometry N", "setting": "[2]", "value": 2}
    ]},
    {"substance": "Rubrerythrin Rbr (CD0825) of Clostridioides difficile (enzyme)", "values": [
      {"measurement": "stoichiometry N", "setting": "[3]", "value": 4}
    ]}
  ]
}
